From US20250367120A1, “PHARMACEUTICAL COMPOSITION AND METHOD FOR PRODUCING SAME” (SUNSHO PHARMACEUTICAL CO., LTD., priority 2022, published 2025) come the findings set out here.

This data set in a line: Area under the curve (AUC) and increase ratio (ER) of FD-4 in plasma after oral administration to Wistar rats. As to the method: Next, FD-4 was orally administered to Wistar rats using an oral sonde so that the dosage was 0.3 mg/kg. After the administration of the sample, blood was collected six times in total until six hours after the administration of the sample, and plasma was fractionated.
It is noted that “AUCt” is AUC (ng·h/mL) of the test preparation, and “dosage t” is dosage (mg/kg) of the test preparation (target data of the test preparation obtained in the above 2).

Take “fluorescein isothiocyanate-dextran 4 [Comparative Example 4]”: the AUC (commonly the area under the concentration-time curve, a measure of exposure) was 24.3 ng·h/mL (Wistar rats, FD-4 dosage 0.3 mg/kg, up to 6 hr, linear trapezoidal method) and 390.5 ng·h/mL (rat, FD-4 dosage 5.0 mg/kg). The “AUCs (reference data of standard preparation)” value (rat, FD-4 dosage 0.3 mg/kg) is on record as 24.3 ng·h/mL.
